Results as given in patent US12648964B2, “Chimeric Tim receptors and uses thereof” (CERO THERAPEUTICS HOLDINGS, INC., priority 2020, dated 2026).
“Also recorded” adds a separate entry of the source. Where two headings read alike, the source gives them in different places.

Experiments:
[1] = test system: Kuramochi cells; conditions: BRCA-2 mutated Kuramochi cell line
Procedure: (§1) In ovarian tumors, poly (ADP-ribose) polymerase (PARP) inhibitors, such as Niraparib, are clinically approved drugs which target DNA damage response pathways. Responses are rarely complete, with relapse common after treatment. To induce Ptd-Ser exposure, BRCA-2 mutated Kuramochi cell line was treated with therapeutic doses of the PARP inhibitor Niraparib.

[2] = test system: Kuramochi cells; conditions: 1.56 or 25 μM Niraparib, 48 hours, vs DMSO
Procedure: FIG. 7A: Flow cytometry measurement of surface PtdSer. Kuramochi cells were treated with 1.56 or 25 μM Niraparib or with equivalent volume of DMSO (control). 48 hours later samples were trypsinized and stained using a Tim4-Fc followed by a fluorescently-labeled secondary antibody to the Tim4-Fc. […] All data were collected via IncuCyte.
as §1

[3] = test system: phosphatidylserine; conditions: cited from earlier work; for binding at High PtdSer: high phosphatidylserine density; for binding at Low PtdSer: low phosphatidylserine density
[4] = test system: E7 TCR-T cells; test: E7-specific T cell proliferation by CT Violet dye dilution after co-culture with E7 peptide-pulsed CER-T cells; format: cell-based; conditions: for stimulation / proliferation responses of E7-specific T cells: CER-T pulsed with E7 peptides, CT Violet dilution after 6 days
Procedure: FIG. 1A: a schematic of pCTX247 and pCTX1107 chimeric Tim4 receptors and pCTX1107 T cells pulsed with E7 peptides and co-cultured with E7-specific T cells to evaluate their antigen presentation capacity. FIG. 1B: E7-specific proliferation responses were measured by CT Violet dye dilution after 6 days in the presence of autologous CER-T (TLR containing or non-containing CERs) pulsed with E7 peptides. […] All data collected by FACS. Cell tracing show E7 TCR-T cells using an anti-mouse TCRb. E7 TCR-T cells were labeled with CT Violet at the time of co-culture.
Chimeric Tim4 receptor-T cells were tested to determine whether they can capture and present soluble antigens and trigger activation and proliferation of recombinant E7-restricted T cell clones in a co-culture system. First expression of Tim4 was confirmed on transduced CER T cells by flow cytometry. Tim4 binding domain-CD28 transmembrane-CD28 signaling domain-CD3z signaling domain (CTX247) and Tim4 binding domain-CD28 signaling domain-CD3z signaling domain-TLR2 signaling domain (CTX1107) were stained for Tim4 and EGFR, a transduction marker encoded on each vector. […] E7 TCRs proliferate in response to APCs pulsed with E7 peptide through MHC class I. For autologous APCs, CD4+ and CD8+ chimeric Tim4 receptor T cell products transduced with different Tim-4 chimeric receptors were pulsed with a pool of 15-mer peptides containing 11-mer overlaps derived from the E7 protein from HPV16 or vehicle. Chimeric Tim4 receptor T cells were pulsed at 37° C. for 4 hrs with E7 peptides and tested for their capacity to trigger E7-specific activation and proliferation. E7-TCR cell surface activation marker responses were evaluated by flow cytometry 24 hours following co-culture with chimeric Tim4 receptor-T cell products. After an additional 5 days of co-culture, proliferative responses were assessed by Cell Trace (CT) Violet dilution. […]

[5] = test system: E7 TCR-T cells; test: E7 TCR-T cell activation markers CD25/CD69 after co-culture with E7 peptide-pulsed CER-T cells (flow cytometry); format: cell-based
Procedure: (§2) FIG. 2: T cells containing chimeric Tim4 receptors with a TLR intracellular signaling domain added to the CD3ζ signaling domain (and optionally a CD28 signaling domain) are strong stimulators of autologous E7-specific T cell responses. CER-T cells were pulsed with E7 peptide and tested for their capacity to trigger an autologous E7-specific T cell response. CD25, a T cell activation marker, was evaluated on E7 TCR-T cells, 24 hours after CER-T cells were pulsed with E7 peptides.
as §2, with “3:” for “2:”, “CD69, an early marker for” for “CD25, a”, “activation,” for “activation marker,”
Chimeric Tim4 receptor-T cells were tested to determine whether they can capture and present soluble antigens and trigger activation and proliferation of recombinant E7-restricted T cell clones in a co-culture system. First expression of Tim4 was confirmed on transduced CER T cells by flow cytometry. Tim4 binding domain-CD28 transmembrane-CD28 signaling domain-CD3z signaling domain (CTX247) and Tim4 binding domain-CD28 signaling domain-CD3z signaling domain-TLR2 signaling domain (CTX1107) were stained for Tim4 and EGFR, a transduction marker encoded on each vector. […] E7 TCRs proliferate in response to APCs pulsed with E7 peptide through MHC class I. For autologous APCs, CD4+ and CD8+ chimeric Tim4 receptor T cell products transduced with different Tim-4 chimeric receptors were pulsed with a pool of 15-mer peptides containing 11-mer overlaps derived from the E7 protein from HPV16 or vehicle. Chimeric Tim4 receptor T cells were pulsed at 37° C. for 4 hrs with E7 peptides and tested for their capacity to trigger E7-specific activation and proliferation. E7-TCR cell surface activation marker responses were evaluated by flow cytometry 24 hours following co-culture with chimeric Tim4 receptor-T cell products. After an additional 5 days of co-culture, proliferative responses were assessed by Cell Trace (CT) Violet dilution.
A higher frequency of E7-TCR containing T cells expressed both activation markers 24 hours after co-culture (FIG. 2).

[6] = 24 hours after CER-T cells pulsed with E7 peptides

NC(=O)c1cccc2cn(-c3ccc([C@@H]4CCCNC4)cc3)nc12 [Niraparib]
inhibition of growth of Kuramochi cells [1]: effective in inhibiting growth | surface PtdSer (membrane phospholipid symmetry) [2]: elicits changes in membrane phospholipid symmetry, in a dose dependent manner

B1: Tim-1: T-cell immunoglobulin and mucin domain containing protein 1, phosphatidylserine receptor (protein, UniProt Q96D42 21-364, looked up)
Hepatitis A virus cellular …: SVKVGGEAGPSVTLPCHYSGAVTSMCWNRGSCSLFTCQNGIVWTNGTHVTYRKDTRYKLLGDLSRRDVSLTIENTAVSDSGVYCCRVEHRGWFNDMKITVSLEIVPPKVTTTPIVTTVPTVTTVRTSTTVPTTTTVPMTTVPTTTVPTTMSIPTTTTVLTTMTVSTTTSVPTTTSIPTTTSVPVTTTVSTFVPPMPLPRQNHEPVATSPSSPQPAETHPTTLQGAIRREPTSSPLYSYTTDGNDTVTESSDGLWNNNQTQLFLEHSLLTANTTKGIYAGVCISVLVLLALLGVIIAKKYFFKKEVQQLSVSFSSLQIKALQNAVEKEVQAEDNIYIENSLYATD
binding at High PtdSer [3]: Strong | binding at Low PtdSer [3]: Moderate | binding at Low PtdSer ([3]; listed as Tim1 binding domain): binds more strongly to a lower phosphatidylserine density | binding at Moderate PtdSer ([3]; moderate phosphatidylserine density): Strong

B2: pCTX1107: Tim4 binding domain-CD28 signaling domain-CD3z signaling domain-TLR2 signaling domain (protein)
chain: ETVVTEVLGHRVTLPCLYSSWSHNSNSMCWGKDQCPYSGCKEALIRTDGMRVTSRKSAKYRLQGTIPRGDVSLTILNPSESDSGVYCCRIEVPGWFNDVKINVRLNLQRASTTTHRTATTTTRRTTTTSPTTTRQMTTTPAALPTTVVTTPDLTTGTPLQMTTIAVFTTANTCLSLTPSTLPEEATGLLTPEPSKEGPILTAESETVLPSDSWSSVESTSADTVLLTSKESKVWDLPSTSHVSMWKTSDSVSSPQPGASDTAVPEQNKTTKTGQMDGIPMSMKNEMPISQRSKRSRLLHSDYMNMTPRRPGPTRKHYQPYAPPRDFAAYRSRVKFSRSADAPAYQQGQNQLYNELNLGRREEYDVLDKRRGRDPEMGGKPRRKNPQEGLYNELQKDKMAEAYSEIGMKGERRRGKGHDGLYQGLSTATKDTYDALHMQALPPRHRFHGLWYMKMMWAWLQAKRKPRKAPSRNICYDAFVSYSERDAYWVENLMVQELENFNPPFKLCLHKRDFIPGKWIIDNIIDSIEKSHKTVFVLSENFVKSEWCKYELDFSHFRLFDENNDAAILILLEPIEKKAIPQRFCKLRKIMNTKTYLEWPMDEAQREGFWVNLRAAIKS
modifications: left off: large carriers
stimulation / proliferation responses of E7-specific T cells [4]: stimulatory for E7-specific T cells; also recorded: triggered proliferation responses of E7-specific TCRs | percentage of dividing E7-TCR-T cells ([4]; by 6 days, controls 8%): 44% | CD25 on E7 TCR-T cells (E7-specific activation) [5, 6]: strong stimulator of E7-specific activation | CD69 on E7 TCR-T cells (E7-specific activation) [5, 6]: strong stimulator of E7-specific activation | CD25 and CD69 upregulation (E7-specific activation) ([5]; 24 hours after co-culture, flow cytometry): strong stimulatory of E7-specific activation | E7 TCR-T cell surface activation markers CD25 and CD69 upregulated ([5]; 24 hrs following co-culture, controls 23.1%): 41.2%

B3: pCTX247: Tim4 binding domain-CD28 transmembrane-CD28 signaling domain-CD3z signaling domain (protein)
chain: ETVVTEVLGHRVTLPCLYSSWSHNSNSMCWGKDQCPYSGCKEALIRTDGMRVTSRKSAKYRLQGTIPRGDVSLTILNPSESDSGVYCCRIEVPGWFNDVKINVRLNLQRASTTTHRTATTTTRRTTTTSPTTTRQMTTTPAALPTTVVTTPDLTTGTPLQMTTIAVFTTANTCLSLTPSTLPEEATGLLTPEPSKEGPILTAESETVLPSDSWSSVESTSADTVLLTSKESKVWDLPSTSHVSMWKTSDSVSSPQPGASDTAVPEQNKTTKTGQMDGIPMSMKNEMPISQFWVLVVVGGVLACYSLLVTVAFIIFWVRSKRSRLLHSDYMNMTPRRPGPTRKHYQPYAPPRDFAAYRSRVKFSRSADAPAYQQGQNQLYNELNLGRREEYDVLDKRRGRDPEMGGKPRRKNPQEGLYNELQKDKMAEAYSEIGMKGERRRGKGHDGLYQGLSTATKDTYDALHMQALPPR
stimulation / proliferation responses of E7-specific T cells [4]: not stimulatory

B4: Tim-4: T-cell immunoglobulin and mucin domain containing protein 4, phosphatidylserine receptor (protein, UniProt Q96H15 25-378, looked up)
T-cell immunoglobulin and …: ETVVTEVLGHRVTLPCLYSSWSHNSNSMCWGKDQCPYSGCKEALIRTDGMRVTSRKSAKYRLQGTIPRGDVSLTILNPSESDSGVYCCRIEVPGWFNDVKINVRLNLQRASTTTHRTATTTTRRTTTTSPTTTRQMTTTPAALPTTVVTTPDLTTGTPLQMTTIAVFTTANTCLSLTPSTLPEEATGLLTPEPSKEGPILTAESETVLPSDSWSSVESTSADTVLLTSKESKVWDLPSTSHVSMWKTSDSVSSPQPGASDTAVPEQNKTTKTGQMDGIPMSMKNEMPISQLLMIIAPSLGFVLFALFVAFLLRGKLMETYCSQKHTRLDYIGDSKNVLNDVQHGREDEDGLFTL
Cooperativity [3]: Yes | binding at High PtdSer [3]: Strong | binding at Low PtdSer [3]: Minimal | binding at Low PtdSer ([3]; listed as Tim4 binding domain): binds minimally
